Measurements reported in US20130039923A1 (Novo Nordisk, published 2013).
Substitutions are numbered along the chain they refer to. Ends that are not written are not given here.

Experiments:
[1] = target: T1, Peptide no. 7 (Figures 7A, 7B) (also: N-terminus acylated); assay: array of terminally truncated, acylated hIL20 peptides on cellulose; fluorescein-labelled antibody; fluorescence as OD
T1 construct: peptide array on cellulose
T1 peptide: YQTPDHYTLRKISSLAN

[2] = target: T2, Peptide no. 16 (Figures 7A, 7B) (also: N-terminus acylated); assay: as above
T2 construct: peptide array on cellulose
T2 peptide: DHYTLRKISSLANSFLTIK

[3] = target: T3, Peptide no. 4 (Figures 7A, 7B) (N-terminus acylated); assay: as above
T3 construct: peptide array on cellulose
T3 peptide: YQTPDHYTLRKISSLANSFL

[4] = target: T4, Peptide no. 14 (Figures 7A, 7B) (N-terminus acylated); assay: as above
T4 construct: peptide array on cellulose
T4 peptide: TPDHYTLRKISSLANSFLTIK

[5] = target: T5, Peptide no. 3 (Figures 7A, 7B) (N-terminus acylated); assay: as above
T5 construct: peptide array on cellulose
T5 peptide: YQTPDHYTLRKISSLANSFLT

[6] = target: T6, Peptide no. 1 (Figures 7A, 7B) (N-terminus acylated); assay: as above
T6 construct: peptide array on cellulose
T6 peptide: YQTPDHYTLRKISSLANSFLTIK

[7] = target: T7, Peptide no. 15 (Figures 7A, 7B) (N-terminus acylated); assay: as above
T7 construct: peptide array on cellulose
T7 peptide: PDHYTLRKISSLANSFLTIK

[8] = target: T8, Peptide no. 5 (Figures 7A, 7B) (also: N-terminus acylated); assay: as above
T8 construct: peptide array on cellulose
T8 peptide: YQTPDHYTLRKISSLANSF

[9] = target: T9, Peptide no. 17 (Figures 7A, 7B) (also: N-terminus acylated); assay: as above
T9 construct: peptide array on cellulose
T9 peptide: HYTLRKISSLANSFLTIK

[10] = target: T10, Peptide no. 6 (Figures 7A, 7B) (also: N-terminus acylated); assay: as above
T10 construct: peptide array on cellulose
T10 peptide: YQTPDHYTLRKISSLANS

[11] = target: T11, Peptide no. 2 (Figures 7A, 7B) (N-terminus acylated); assay: as above
T11 construct: peptide array on cellulose
T11 peptide: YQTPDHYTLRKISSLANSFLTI

[12] = target: T12, Peptide no. 46 (Figure 8A); assay: Ala-scan peptide array of hIL20 74-96 on cellulose; fluorescein-labelled antibody; fluorescence as OD
T12 construct: Ala-scan peptide on the array; also called Peptide no; Y80A
T12 peptide: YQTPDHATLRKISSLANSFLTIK

[13] = target: T13, Peptide no. 48 (Figure 8A); assay: as above
T13 construct: Ala-scan peptide on the array; also called Peptide no; L82A
T13 peptide: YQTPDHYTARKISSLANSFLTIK

[14] = target: T14, Peptide no. 51 (Figure 8A); assay: as above
T14 construct: Ala-scan peptide on the array; also called Peptide no; I85A
T14 peptide: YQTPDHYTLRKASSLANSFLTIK

[15] = target: T15, Peptide no. 60 (Figure 8A); assay: as above
T15 construct: Ala-scan peptide on the array; also called Peptide no; I95A
T15 peptide: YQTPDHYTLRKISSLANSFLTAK

[16] = target: T16, Peptide no. 56 (Figure 8A); assay: as above
T16 construct: Ala-scan peptide on the array; also called Peptide no; S91A
T16 peptide: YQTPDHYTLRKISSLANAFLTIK

[17] = target: T17, Peptide no. 42 (Figure 8A); assay: as above
T17 construct: Ala-scan peptide on the array; also called Peptide no; T76A
T17 peptide: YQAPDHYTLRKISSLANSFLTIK

[18] = target: T18, Peptide no. 58 (Figure 8A); assay: as above
T18 construct: Ala-scan peptide on the array; also called Peptide no; L93A
T18 peptide: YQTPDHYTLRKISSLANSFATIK

murine IL20 = target: T19, murine IL20 (mouse, UniProt Q9JKV9 25-176); assay: cell-based or functional assay
T19 sequence: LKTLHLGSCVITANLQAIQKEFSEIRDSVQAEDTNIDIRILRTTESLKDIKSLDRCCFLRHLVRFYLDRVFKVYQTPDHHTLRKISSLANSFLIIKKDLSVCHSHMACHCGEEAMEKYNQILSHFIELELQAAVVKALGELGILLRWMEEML

cynomolgus IL20 = target: T20, cynomolgus IL20 (cynomolgus monkey, UniProt Q9NYY1 25-176 (human entry)); assay: cell-based or functional assay
T20 chain: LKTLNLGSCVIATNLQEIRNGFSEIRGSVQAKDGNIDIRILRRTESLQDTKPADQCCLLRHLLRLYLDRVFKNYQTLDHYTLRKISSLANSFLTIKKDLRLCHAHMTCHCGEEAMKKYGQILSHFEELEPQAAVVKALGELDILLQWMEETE

[19] = target: T21, recombinant human interleukin-20 (human, UniProt Q9NYY1 25-176); assay: cell-based or functional assay
T21 sequence: T20 chain with D54N, Q55R, L77P, G119S, E127K

B1: human anti-hIL20 monoclonal antibody 15D2 (antibody, V domains shown)
VH: QVQLVQSGAEVKRPGASVKVSCKASGYTFTNDIIHWVRQAPGQRLEWMGWINAGYGNTQYSQNFQDRVSITRDTSASTAYMELISLRSEDTAVYYCAREPLWFGESSPHDYYGMDVWGQGTTVTVSS
VL: AIQLTQSPSSLSASVGDRVTITCRASQGISSALAWYQQKPGKAPKLLIYDASSLESGVPSRFSGSGSGTDFTLTISSLQPEDFATYYCQQFNSYPLTFGGGTKVEIKR
notes: also called 15D2-wt; 15D2 wild-type
**Q.** Does B1 bind [1]?
**A.** binds

**Q.** Does B1 bind [2]?
**A.** binds

**Q.** Does B1 bind [3]?
**A.** binds

**Q.** Does B1 bind [4]?
**A.** binds

**Q.** Does B1 bind [5]?
**A.** binds

**Q.** Does B1 bind [6]?
**A.** binds

**Q.** Does B1 bind [7]?
**A.** binds

**Q.** Does B1 bind [8]?
**A.** binds

**Q.** Does B1 bind [9]?
**A.** binds

**Q.** Does B1 bind [10]?
**A.** binds

**Q.** Does B1 bind [11]?
**A.** binds

**Q.** Does B1 bind [12]?
**A.** binds

**Q.** Does B1 bind [13]?
**A.** binds

**Q.** Does B1 bind [14]?
**A.** binds

**Q.** Does B1 bind [15]?
**A.** binds

**Q.** Does B1 bind [16]?
**A.** binds

**Q.** Does B1 bind [17]?
**A.** binds

**Q.** Does B1 bind [18]?
**A.** binds

**Q.** What about the “efficacy (percentage inhibition) of IL20-induced proliferation of BaF-3(hIL20R)” value (“efficacy (percentage inhibition)” for short) (murine IL20) of the same binder?
**A.** ~100%

**Q.** And the “efficacy (percentage inhibition)” value (cynomolgus IL20)?
**A.** ~100%

**Q.** What about the “efficacy (percentage inhibition)” value [19] of the same binder?
**A.** ~100%
